We go through one molecule from article PMC4465127 (2015).

The target of the assay is T1, LIN-3 EGF domain EGF (Caenorhabditis elegans, UniProt Q03345).
T1 chain: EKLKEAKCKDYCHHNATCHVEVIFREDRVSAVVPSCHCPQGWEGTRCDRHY

Usually Kd stands for the free concentration of one partner at which half of the binding sites on the other are occupied at equilibrium, for simple one-to-one binding. Read a low Kd as a tighter complex.

B1: sLET-23 ECD (protein)
chain: FGNSNAQLWKRCVSPQDCLCSGTTNGISRYGTGNILEDLETMYRGCRRVYGNLEITWIEANEIKKWRESTNSTVDPKNEDSPLKSINFFDNLEEIRGSLIIYRANIQKISFPRLRVIYGDEVFHDNALYIHKNDKVHEVVMRELRVIRNGSVTIQDNPKMCYIGDKIDWKELLYDPDVQKVETTNSHQHCYQNGKSMAKCHESCNDKCWGSGDNDCQRVYRSVCPKSCSQCFYSNSTSSYECCDSACLGGCTGHGPKNCIACSKYELDGICIETCPSRKIFNHKTGRLVFNPDGRYQNGNHCVKECPPELLIENDVCVRHCSDGHHYDATKDVRECEKCRSSSCPKICTVDGHLTNETLKNLEGCEQIDGHLIIEHAFTYEQLKVLETVKIVSEYITIVQQNFYDLKFLKNLQIIEGRKLHNVRWALAIYQCDDLEELSLNSLKLIKTGAVLIMKNHRLCYVSKIDWSSIITSKGKDNKPSLAIAENRDSKLCETEQRVCDKNCNKRGCWGKEPEDCLECKTWKSVGTCVEKCDTKGFLRNQTSMKCERCSPECETCNGLGELDCLTCRHKTLYNSDFGNRMECVHDCPVSHFPTQKNVCEKCHPTCYDNGCTGPDSNLGYGGCKQCKYAVKYENDTIFCLQSSGMNNVCVENDLPNYYISTYDTEGVIETHCEKCSISCKTCSSAGRNVVQNKCVCKHVEYQPNPSERICMDQCPVNSFMVPDTNNTVCKKCHHECDQNYHCANGQSTGCQKCKNFTVFKGDIAQCVSECPKNLPFSNPANGECLDYDIASRQRKTR
For the molecule B1, the dissociation constant Kd was about 3000 nM.
